The record followed here is article PMC10849882.

The target of test [1] is IMPDH1(595)-S477D (human). The test is described as follows: cryo-EM structure.
In test [2] the target is IMPDH1(595)-S477D (human). The test can be described thus: negative stain EM.

With IMPDH1(595)-S477D (enzyme), the stoichiometry N in test [1] and in test [2] was 8 each time.
